Data from article PMC10369947.
Where two headings read alike, the source gives them in different places.

Columns and labels:
Assay in all cases: smFRET
[1] = molecular target: T1, GAF-DBD (GAF-ZnF, Cy3) (Drosophila melanogaster, UniProt Q08605)
T1 sequence: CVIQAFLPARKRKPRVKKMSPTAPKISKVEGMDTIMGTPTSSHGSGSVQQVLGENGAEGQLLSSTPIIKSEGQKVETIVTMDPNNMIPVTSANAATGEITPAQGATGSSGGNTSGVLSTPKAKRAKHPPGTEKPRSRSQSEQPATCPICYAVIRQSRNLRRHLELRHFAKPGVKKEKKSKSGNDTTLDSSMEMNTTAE

[2] = molecular target: T1, GAF-DBD (GAF-ZnF, Cy3); remark: listed apart in the source
[3] = molecular target: T1, GAF-DBD (GAF-ZnF, Cy3); remark: listed apart in the source
[4] = molecular target: T1, GAF-DBD (GAF-ZnF, Cy3); remark: listed apart in the source

B1: hsp70 tandem Cy5/Cy7 DNA (187 bp) (dsDNA)
DNA 1: TCATTTGTTTGGCAGAAAGAAAACTCTCAAAATTTCGTTGGCCGTTATAGCATATTCGTTTTGTGAGAGAGGGAGAGAGTACTATTGTTAACCCACAAGGTCGCACAGTAAACGGCACACTGTACGTGTTGCTTCGAGAGAGCGCGCCACCTGGTGTCGCGAAAAGAGCGCCGGAGTATAAATAGAG
DNA 2: CTCTATTTATACTCCGGCGCTCTTTTCGCGACACCAGGTGGCGCGCTCTCTCGAAGCAACACGTACAGTGTGCCGTTTACTGTGCGACCTTGTGGGTTAACAATAGTACTCTCTCCCTCTCTCACAAAACGAATATGCTATAACGGCCAACGAAATTTTGAGAGTTTTCTTTCTGCCAAACAAATGA
modifications: amino-C6-T coupled dyes
B1: binds [1].

B2: hsp70 Site 2 Only Cy5/Cy7 DNA (dsDNA)
DNA 1: TCATTTGTTTGGCAGAAAGAAAACTCTCAAAATTTCGTTGGCCGTTATAGCATATTCGTTTTGTCCAGCACTGTAATAGTACTATTGTTAACCCACAAGGTCGCACAGTAAACGGCACACTGTACGTGTTGCTTCGAGAGAGCGCGCCACCTGGTGTCGCGAAAAGAGCGCCGGAGTATAAATAGAG
DNA 2: CTCTATTTATACTCCGGCGCTCTTTTCGCGACACCAGGTGGCGCGCTCTCTCGAAGCAACACGTACAGTGTGCCGTTTACTGTGCGACCTTGTGGGTTAACAATAGTACTATTACAGTGCTGGACAAAACGAATATGCTATAACGGCCAACGAAATTTTGAGAGTTTTCTTTCTGCCAAACAAATGA
modifications: amino-C6-T coupled dyes
B2: binds [2].

B3: hsp70 flipped Cy5/Cy7 DNA (187 bp) (dsDNA)
DNA 1: TCATTTGTTTGGCAGAAAGAAAACTCTCAAAATTTCGTTGGCCGTTATAGCATATTCGTTTTGTGACTCTCCCTCTCTGTACTATTGTTAACCCACAAGGTCGCACAGTAAACGGCACACTGTACGTGTTGCTTCGAGAGAGCGCGCCACCTGGTGTCGCGAAAAGAGCGCCGGAGTATAAATAGAG
DNA 2: CTCTATTTATACTCCGGCGCTCTTTTCGCGACACCAGGTGGCGCGCTCTCTCGAAGCAACACGTACAGTGTGCCGTTTACTGTGCGACCTTGTGGGTTAACAATAGTACAGAGAGGGAGAGTCACAAAACGAATATGCTATAACGGCCAACGAAATTTTGAGAGTTTTCTTTCTGCCAAACAAATGA
modifications: amino-C6-T coupled dyes
B3: binds [3].

B4: Cognate-Motif Cy5-DNA (90 bp) (dsDNA)
DNA 1: GTTTTGTGAGTACGCGCTGTTGTACTATTGTTAACCCACAAGGTCGCACAGTAAACGGCACACTGTACGTGTTGCTTCGAGAGAGCGCGC
DNA 2: GCGCGCTCTCTCGAAGCAACACGTACAGTGTGCCGTTTACTGTGCGACCTTGTGGGTTAACAATAGTACAACAGCGCGTACTCACAAAAC
modifications: internal backbone Cy5 in strand 2
B4: binds [4].
